Measurements taken from patent US20030166567.

Molecular target: T1, 19-mer (SEQ ID NO:11) cleavage domain peptide
T1 chain: PRCGNPDVANYNFFPRKPK

B1: Proenzyme pro-MMP-9 (protein)
chain: APRQRQSTLVLFPGDLRTNLTDRQLAEEYLYRYGYTRVAEMRGESKSLGPALLLLQKQLSLPETGELDSATLKAMRTPRCGVPDLGRFQTFEGDLKWHHHNITYWIQNYSEDLPRAVIDDAFARAFALWSAVTPLTFTRVYSRDADIVIQFGVAEHGDGYPFDGKDGLLAHAFPPGPGIQGDAHFDDDELWSLGKGVVVPTRFGNADGAACHFPFIFEGRSYSACTTDGRSDGLPWCSTTANYDTDDRFGFCPSERLYTQDGNADGKPCQFPFIFQGQSYSACTTDGRSDGYRWCATTANYDRDKLFGFCPTRADSTVMGGNSAGELCVFPFTFLGKEYSTCTSEGRGDGRLWCATTSNFDSDKKWGFCPDQGYSLFLVAAHEFGHALGLDHSSVPEALMYPMYRFTEGPPLHKDDVNGIRHLYGPRPEPEPRPPTTTTPQPTAPPTVCPTGPPTVHPSERPTAGPTGPPSAGPTGPPTAGPSTATTVPLSPVDDACNVNIFDAIAEIGNQLYLFKDGKYWRFSEGRGSRPQGPFLIADKWPALPRKLDSVFEERLSKKLFFFSGRQVWVYTGASVLGPRRLDKLGLGADVAQVTGALRSGRGKMLLFSGRRLWRFDVKAQMVDPRSASEVDRMFPGVPLDTHDVFQYREKAYFCQDRFYWRVSSRSELNQVDQVGYVTYDILQCPED
- anti-activation (splicing) assay: conversion of pro-MMP-9 by stromilysin, followed by HPLC: Titrating the standard splicing reaction with the 19-mer (SEQ ID NO:11) peptide prevents the conversion of pro-MMP-9 into the prodomain and the active enzyme ... Splicing can be inhibited in a dose dependent manner with micromolar 19-mer (SEQ ID NO:11) peptide
